Assay results from paper PMC3920632, “bkaR is a TetR-type repressor that controls an operon associated with branched-chain keto-acid metabolism in Mycobacteria”.

T1: His6-BkaRMtb (Mycobacterium tuberculosis H37Rv, UniProt O06169 1-215)
T1 sequence: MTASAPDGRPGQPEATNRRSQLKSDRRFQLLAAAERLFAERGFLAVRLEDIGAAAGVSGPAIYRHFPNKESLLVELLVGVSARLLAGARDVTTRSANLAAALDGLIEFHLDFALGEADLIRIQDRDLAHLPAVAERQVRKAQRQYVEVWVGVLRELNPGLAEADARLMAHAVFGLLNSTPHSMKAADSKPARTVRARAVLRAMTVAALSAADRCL

B1: probe 1 (bkaRMtb/fadD35) (dsDNA)
DNA 1: TCGTGCTACGTTAGTGACGATTAACCGAAG
DNA 2: CTTCGGTTAATCGTCACTAACGTAGCACGA
B2: scoA motif probe (dsDNA)
DNA 1: CTCACCTCAGTTAATGATAATTAACTGAAA
DNA 2: TTTCAGTTAATTATCATTAACTGAGGTGAG
B3: MSMEG_4920 motif probe (dsDNA)
DNA 1: GCTGTGTTAACGATGATTAACCGGCACAGC
DNA 2: GCTGTGCCGGTTAATCATCGTTAACACAGC
B4: MSMEG_3414 motif probe (dsDNA)
DNA 1: TCGGTCCAGGTTAGCCAAAACTATTTCAGAA
DNA 2: TTCTGAAATAGTTTTGGCTAACCTGGACCGA
B5: MSMEG_3415 motif probe (dsDNA)
DNA 1: TACTTCTGAAATAGTTTTGGCTAACCTGGAC
DNA 2: GTCCAGGTTAGCCAAAACTATTTCAGAAGTA
B6: MSMEG_4524 motif probe (dsDNA)
DNA 1: CAGCAAGTAAATGTAGCCTAACCTAGCTACG
DNA 2: CGTAGCTAGGTTAGGCTACATTTACTTGCTG
B7: Rv0576 motif probe (dsDNA)
DNA 1: GATCAATACGTTAGTGAGCGCTAACGTATT
DNA 2: AATACGTTAGCGCTCACTAACGTATTGATC
B8: Rv0575c motif probe (dsDNA)
DNA 1: ACGCCAATACGTTAGCGCTCACTAACGTATTG
DNA 2: CAATACGTTAGTGAGCGCTAACGTATTGGCGT

What was measured:
[1] = molecular target: T1, His6-BkaRMtb; assay: EMSA; 20 mM HEPES pH 7.6, 1 mM EDTA, 10 mM ([…]; temperature not stated; conditions: protein: recombinant, tags: His6 (pNIC28-Bsa4, GenBank EF198106), chain copies: 2, blunt
[2] = molecular target: T1, His6-BkaRMtb; assay: EMSA; 0.6 uM protein, 0.06 uM DNA; 20 mM HEPES pH 7.6, 1 mM EDTA, 10 mM ([…]; temperature not stated; conditions: protein: recombinant; tags: His6 (pNIC28-Bsa4, GenBank EF198106); chain copies: 2; blunt

Row | Binder | binding result [1] | further results
1 | B1 | – | binding result ([1]; label: DIG-11-ddUTP 3' end): binds
2 | B2 | – | binding result [2]: binds
3 | B3 | – | binding result [2]: binds
4 | B4 | no binding | –
5 | B5 | no binding | –
6 | B6 | no binding | –
7 | B7 | no binding | –
8 | B8 | no binding | –
